Measured values published in the supplement of paper PMC9732359.
± gives the uncertainty stated by the source.

Assay: protein stability index of a GFP-peptide fusion (yeast GPS) (PSI 1-4); higher = more stable; sorted into four equal gates, so the index is relative within each strain
Summary of the method: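 Yeast carrying a pooled library were grown to mid-log phase in leucine-free medium. Each library plasmid expresses Cherry and has a tiled 17-residue yeast protein peptide fused downstream of GFP. Cells were sorted into four equal gates by GFP/Cherry ratio, and plasmids from each gate were PCR-amplified, Illumina-sequenced and assigned to strains by barcode. Summing, across gates, the read frequency times the gate number gave each peptide's protein stability index.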

| Sequence | protein stability index (doa10∆) | protein stability index (pdr5∆) | protein stability index (san1∆) | protein stability index (ubr1∆) |
| --- | --- | --- | --- | --- |
| VNGSTTAGVGSTPNFGG [SIN4] | 3.58 ± 0.079 | 3.33 ± 0.095 | 3.4 ± 0.078 | 3.25 ± 0.077 |
| LDENLNSLSSNLSSLIV [YJL041W/NSP1] | 2.41 ± 0.04 | 2.54 ± 0.061 | 2.66 ± 0.065 | 2.6 ± 0.044 |
| FMSNDGPTLEKYISAEL [SNU114] | 2.18 ± 0.069 | 2.83 ± 0.078 | 3.03 ± 0.054 | 3.24 ± 0.082 |
| QRDAVTLFCCLLRSRLA [RPO21] | 1.78 ± 0.045 | 1.92 ± 0.044 | 1.85 ± 0.057 | 1.98 ± 0.041 |
| TPLFHALAEGHGDAAVL [NAS6] | – | 3.1 ± 0.1 | 3.07 ± 0.091 | 2.61 ± 0.12 |
| KRELKRAQEEVKRIQSV [RPT3] | 3.23 ± 0.096 | 3.39 ± 0.14 | 2.91 ± 0.096 | 3.38 ± 0.083 |
| DFSIRKTCAKSVIQLCG [ECM29] | 1.84 ± 0.12 | 1.91 ± 0.13 | 2.05 ± 0.22 | – |
| TSSRQTVFLPMVGLVDP [RPT5] | 2.55 ± 0.038 | 2.62 ± 0.044 | 2.39 ± 0.044 | 2.16 ± 0.033 |
| IEDLWQFLYEKHYKNIP [RPC82] | 2.23 ± 0.088 | 1.53 ± 0.078 | 1.62 ± 0.19 | 2.1 ± 0.071 |
| DEVYVQNSKFLKVNVTL [YJL039C/NUP192] | 2.68 ± 0.064 | 2.78 ± 0.054 | 2.76 ± 0.06 | 2.45 ± 0.039 |
| KEIMDKIITSRPLQKIM [SIN4] | 2.13 ± 0.12 | 1.23 ± 0.068 | 1.45 ± 0.18 | 1.06 ± 0.065 |
| SETADETLENNIVSVLT [RPN11] | 2.73 ± 0.11 | 2.94 ± 0.076 | 2.75 ± 0.11 | 2.78 ± 0.097 |
| LQRHSGISSTLVSANND [YLR018C/POM34] | 2.7 ± 0.052 | 2.87 ± 0.064 | 2.96 ± 0.062 | 2.94 ± 0.07 |
| NNSDDEDVDDEELDITP [IRR1] | 3.25 ± 0.099 | 3.46 ± 0.11 | 3.58 ± 0.083 | 3.31 ± 0.077 |
| VNQDSTYKYFEVILVDP [RPL15A] | 3.21 ± 0.068 | 3.43 ± 0.082 | 3.12 ± 0.048 | 3.19 ± 0.057 |
| GLDKFSNIDIRVRVTGG [RPS16A] | 1.51 ± 0.082 | 1.74 ± 0.072 | 1.52 ± 0.22 | 1.54 ± 0.055 |
| DDDIEKQEQEEKIKSKK [YCG1] | 3.08 ± 0.067 | 2.99 ± 0.056 | 3.01 ± 0.052 | 3.14 ± 0.049 |
| QLLDTSNQRFKDLQWLE [SIN4] | 3.02 ± 0.066 | 2.96 ± 0.076 | 2.88 ± 0.06 | 2.91 ± 0.043 |
| SKSDSDSEERDPKLEKC [ITC1] | 3 ± 0.14 | 2.97 ± 0.13 | 2.62 ± 0.11 | 1.84 ± 0.058 |
| KGLTYLHLDYNFNLKPT [PRP8] | 2.19 ± 0.032 | 2.12 ± 0.035 | 2.05 ± 0.05 | 2.22 ± 0.03 |
| IVTPVEKAVEEKPAVKS [RPT3] | 2.6 ± 0.1 | 3.07 ± 0.064 | 3.17 ± 0.051 | 3.13 ± 0.086 |
| RELYKYVRKHDPLNSNI [PRP28] | 2.96 ± 0.083 | 2.86 ± 0.082 | 2.96 ± 0.05 | 3.16 ± 0.09 |
| ALSMGKSSAFVIDIGAS [ARP7] | 1.47 ± 0.043 | 1.95 ± 0.069 | 1.62 ± 0.092 | 2.1 ± 0.059 |
| KTTYYYYNEEGIHILLY [RPC82] | 1.9 ± 0.12 | – | – | 2.75 ± 0.05 |
| FLKDADVECIKAKSHFT [YJL039C/NUP192] | 3.11 ± 0.13 | 3.2 ± 0.14 | 2.91 ± 0.089 | 2.98 ± 0.059 |
| VLALKVEDFLERRLQTQ [RPS9A] | 2.42 ± 0.14 | 2.86 ± 0.092 | 2.63 ± 0.072 | 2.83 ± 0.076 |
| PVEKVQRIAKNDPEYMD [DLS1] | 2.75 ± 0.27 | 3.29 ± 0.14 | 3.17 ± 0.12 | 3.31 ± 0.087 |

| Sequence | protein stability index (doa10∆) | protein stability index (pdr5∆) | protein stability index (san1∆) | protein stability index (ubr1∆) |
| --- | --- | --- | --- | --- |
| FLLHNSEIIDTNTSKQF [SRB8] | 2.83 ± 0.086 | 3.06 ± 0.069 | 2.85 ± 0.055 | 2.81 ± 0.044 |
| ISNGNLATGPNLTSEIE [YOR098C/NUP1] | 3.4 ± 0.096 | 3.39 ± 0.11 | 3.17 ± 0.06 | 3.41 ± 0.091 |
| GVMLWKEFDETIFNLPK [FAS1] | 1.75 ± 0.073 | 1.56 ± 0.12 | 1.15 ± 0.21 | 2.81 ± 0.2 |
| HKQVYPLRMETIPILES [DSN1] | 1.73 ± 0.049 | 2.37 ± 0.05 | 2.24 ± 0.066 | 2.14 ± 0.038 |
| EALSEKPTREPTPSVKT [RPC53] | 3.11 ± 0.099 | 3.07 ± 0.085 | 3.2 ± 0.063 | 3.25 ± 0.089 |
| CFVHRYKDVSDLIRSES [IRR1] | 2.67 ± 0.082 | 2.7 ± 0.061 | 2.89 ± 0.056 | 2.89 ± 0.06 |
| QRSKKIQPTAKVVYIQR [DIS3] | 2.23 ± 0.27 | 2.56 ± 0.22 | 2.92 ± 0.17 | – |
| GFIETTELLNIYDSEDP [RPN3] | 2.71 ± 0.091 | 3.01 ± 0.095 | 2.85 ± 0.084 | 3.06 ± 0.075 |
| NSDLEGKIRGVEDDLVT [SMC2] | 3.14 ± 0.094 | 3.33 ± 0.064 | 3.15 ± 0.067 | 3.24 ± 0.051 |
| DCRMGNFYIQYDPKDGL [AAR2] | 2.77 ± 0.054 | 2.39 ± 0.058 | 2.31 ± 0.08 | 2.61 ± 0.037 |
| RQQQQRSILQSLNPALQ [SWI1] | 1.76 ± 0.051 | 1.92 ± 0.06 | 1.54 ± 0.084 | 1.89 ± 0.053 |
| TGAGVDVNTNANANANA [SNF11] | 3.12 ± 0.074 | 3.31 ± 0.07 | 3.19 ± 0.045 | 3.34 ± 0.051 |
| SNLSQNVVPYHRNTSDY [SWI1] | 2.65 ± 0.083 | 3.07 ± 0.086 | 2.82 ± 0.1 | 2.92 ± 0.058 |
| KHEDLSLEQRQEVTKFA [RPN4] | 2.85 ± 0.15 | 3.05 ± 0.23 | 2.84 ± 0.1 | – |
| SSIDKIEDRDFLVRYAC [SIR3] | 2.9 ± 0.17 | – | – | 3.02 ± 0.21 |
| KLHMGTDDVRLAPELNQ [RPL31A] | 3.11 ± 0.12 | 3.25 ± 0.083 | 3.13 ± 0.083 | 3.09 ± 0.052 |
| IKEELTKLIISGQLNFE [PCI8] | 3.29 ± 0.15 | 3.19 ± 0.15 | 2.54 ± 0.26 | 2.99 ± 0.088 |
| LYEIILAANYLNIKPLL [SKP1] | 1.51 ± 0.046 | 1.33 ± 0.045 | 1.28 ± 0.11 | 1.46 ± 0.045 |
| SFSFSIPSKNTPDASKP [YLR335W/NUP2] | 2.42 ± 0.04 | 2.45 ± 0.042 | 2.28 ± 0.045 | 2.5 ± 0.037 |
| ENLVQGNGNVSESDIIN [YCG1] | 3.78 ± 0.29 | – | – | – |
| NSLTKYPDLKAFHNNLK [MED1] | 2.9 ± 0.11 | 3.16 ± 0.089 | 2.89 ± 0.092 | 2.93 ± 0.062 |
| KRNKLLTIFDSVDESAR [YJL039C/NUP192] | 2.26 ± 0.07 | 2.37 ± 0.072 | 2.32 ± 0.061 | 2.36 ± 0.066 |
| VPISTSQTNNSFLSGVK [SIR4] | 2.56 ± 0.054 | 2.73 ± 0.07 | 2.63 ± 0.067 | 2.95 ± 0.057 |
| LPNKSTISKTVSSTIPR [FAS2] | 2.01 ± 0.072 | 2.63 ± 0.077 | 2.92 ± 0.11 | 2.94 ± 0.084 |
| HGMFSSASVRALIENWA [FAS1] | 1.48 ± 0.11 | 1.84 ± 0.12 | 1.48 ± 0.17 | 1.76 ± 0.064 |
| LISLKLLTFEVTQNVLG [SRB8] | 1.73 ± 0.078 | 1.46 ± 0.072 | 1.28 ± 0.25 | 1.69 ± 0.084 |
